Here are results for 50 variants from the Human Domainome abundance scans (Beltran et al. 2025).

± gives the uncertainty stated by the source.

Sequences and labels used below:
B1: Metastasis-associated protein MTA3, residues 265 to 317; numbered along this chain, Q9BTC8 (parent)
chain: RDEMEEWSASEASLFEEALEKYGKDFNDIRQDFLPWKSLTSIIEYYYMWKTTD

The variants in the series derive from B1. The series can be described thus: abundance fitness (aPCA) (normalised: wild type 0, dead -1); higher = more abundant; growth selection in yeast, the domain comes from the species named. The settings on record: Homo sapiens.
Consider RDEMEEWMASEASLFEEALEKYGKDFNDIRQDFLPWKSLTSIIEYYYMWKTTD [S8M], for which the abundance fitness was -0.771 ± 0.17. With RDEMEEWSAFEASLFEEALEKYGKDFNDIRQDFLPWKSLTSIIEYYYMWKTTD [S10F], the abundance fitness is -0.216 ± 0.13. In the case of RDEMEEWSAAEASLFEEALEKYGKDFNDIRQDFLPWKSLTSIIEYYYMWKTTD [S10A] it was -0.154 ± 0.087. Regarding RDEMEEWSAGEASLFEEALEKYGKDFNDIRQDFLPWKSLTSIIEYYYMWKTTD [S10G], the abundance fitness is -0.275 ± 0.092.

In the case of RDEMEEWSALEASLFEEALEKYGKDFNDIRQDFLPWKSLTSIIEYYYMWKTTD [S10L], the abundance fitness was -0.038 ± 0.063. For RDEMEEWSAEEASLFEEALEKYGKDFNDIRQDFLPWKSLTSIIEYYYMWKTTD [S10E], the abundance fitness is -0.012 ± 0.1. The figure for RDEMEEWSAHEASLFEEALEKYGKDFNDIRQDFLPWKSLTSIIEYYYMWKTTD [S10H] is -0.139 ± 0.13; for RDEMEEWSAIEASLFEEALEKYGKDFNDIRQDFLPWKSLTSIIEYYYMWKTTD [S10I] it is -0.462 ± 0.2. Regarding RDEMEEWSAKEASLFEEALEKYGKDFNDIRQDFLPWKSLTSIIEYYYMWKTTD [S10K], the abundance fitness stood at 0.219 ± 0.1. In the case of RDEMLEWSASEASLFEEALEKYGKDFNDIRQDFLPWKSLTSIIEYYYMWKTTD [E5L] it was -0.423 ± 0.076; in that of RDEMDEWSASEASLFEEALEKYGKDFNDIRQDFLPWKSLTSIIEYYYMWKTTD [E5D], -0.341 ± 0.37; in that of RDEMQEWSASEASLFEEALEKYGKDFNDIRQDFLPWKSLTSIIEYYYMWKTTD [E5Q], -0.347 ± 0.46.

RDEMAEWSASEASLFEEALEKYGKDFNDIRQDFLPWKSLTSIIEYYYMWKTTD [E5A]: the abundance fitness was 0.173 ± 0.22. The figure for RDEMYEWSASEASLFEEALEKYGKDFNDIRQDFLPWKSLTSIIEYYYMWKTTD [E5Y] is -0.042 ± 0.47; for RDEMWEWSASEASLFEEALEKYGKDFNDIRQDFLPWKSLTSIIEYYYMWKTTD [E5W] it is -0.639 ± 0.24. In the case of RDEMMEWSASEASLFEEALEKYGKDFNDIRQDFLPWKSLTSIIEYYYMWKTTD [E5M] it was -0.209 ± 0.11; in that of RDEMHEWSASEASLFEEALEKYGKDFNDIRQDFLPWKSLTSIIEYYYMWKTTD [E5H], -0.636 ± 0.37; in that of RDEMNEWSASEASLFEEALEKYGKDFNDIRQDFLPWKSLTSIIEYYYMWKTTD [E5N], -0.09 ± 0.25. With RDEMREWSASEASLFEEALEKYGKDFNDIRQDFLPWKSLTSIIEYYYMWKTTD [E5R], the abundance fitness was -0.341 ± 0.09.

Take RDEMKEWSASEASLFEEALEKYGKDFNDIRQDFLPWKSLTSIIEYYYMWKTTD [E5K]: the abundance fitness was -0.031 ± 0.16. In the case of RDEMVEWSASEASLFEEALEKYGKDFNDIRQDFLPWKSLTSIIEYYYMWKTTD [E5V] it was -0.719 ± 0.26; in that of RDEMIEWSASEASLFEEALEKYGKDFNDIRQDFLPWKSLTSIIEYYYMWKTTD [E5I], -0.196 ± 0.26. In the case of RDEMSEWSASEASLFEEALEKYGKDFNDIRQDFLPWKSLTSIIEYYYMWKTTD [E5S] it was -0.107 ± 0.12; in that of RDEMTEWSASEASLFEEALEKYGKDFNDIRQDFLPWKSLTSIIEYYYMWKTTD [E5T], -0.697 ± 0.34.

On to RDEMCEWSASEASLFEEALEKYGKDFNDIRQDFLPWKSLTSIIEYYYMWKTTD [E5C], for which the abundance fitness is -0.341 ± 0.32.

As for RDEMEAWSASEASLFEEALEKYGKDFNDIRQDFLPWKSLTSIIEYYYMWKTTD [E6A], the abundance fitness was determined as 0.228 ± 0.19. For RDEMEWWSASEASLFEEALEKYGKDFNDIRQDFLPWKSLTSIIEYYYMWKTTD [E6W], the abundance fitness is -0.862 ± 0.15. In the case of RDEMEGWSASEASLFEEALEKYGKDFNDIRQDFLPWKSLTSIIEYYYMWKTTD [E6G] it was -0.302 ± 0.13; in that of RDEMEPWSASEASLFEEALEKYGKDFNDIRQDFLPWKSLTSIIEYYYMWKTTD [E6P], -0.384 ± 0.27; in that of RDEMEMWSASEASLFEEALEKYGKDFNDIRQDFLPWKSLTSIIEYYYMWKTTD [E6M], 0.08 ± 0.33.

As for RDEMEVWSASEASLFEEALEKYGKDFNDIRQDFLPWKSLTSIIEYYYMWKTTD [E6V], the abundance fitness came out at 0.443 ± 0.2. With RDEMETWSASEASLFEEALEKYGKDFNDIRQDFLPWKSLTSIIEYYYMWKTTD [E6T], the abundance fitness is -0.267 ± 0.4. Take RDEMELWSASEASLFEEALEKYGKDFNDIRQDFLPWKSLTSIIEYYYMWKTTD [E6L]: the abundance fitness is -0.757 ± 0.24. Turning to RDEMEFWSASEASLFEEALEKYGKDFNDIRQDFLPWKSLTSIIEYYYMWKTTD [E6F], the abundance fitness is -0.159 ± 0.37. Consider RDEMESWSASEASLFEEALEKYGKDFNDIRQDFLPWKSLTSIIEYYYMWKTTD [E6S], for which the abundance fitness was -0.289 ± 0.19. In the case of RDEMERWSASEASLFEEALEKYGKDFNDIRQDFLPWKSLTSIIEYYYMWKTTD [E6R] it was -0.226 ± 0.13; in that of RDEMEKWSASEASLFEEALEKYGKDFNDIRQDFLPWKSLTSIIEYYYMWKTTD [E6K], 0.096 ± 0.28. In the case of RDEMEDWSASEASLFEEALEKYGKDFNDIRQDFLPWKSLTSIIEYYYMWKTTD [E6D] it was -0.443 ± 0.32. The figure for RDEMEHWSASEASLFEEALEKYGKDFNDIRQDFLPWKSLTSIIEYYYMWKTTD [E6H] is 0.415 ± 0.24. As for RDEYEEWSASEASLFEEALEKYGKDFNDIRQDFLPWKSLTSIIEYYYMWKTTD [M4Y], the abundance fitness is -0.797 ± 0.41. In the case of RDEQEEWSASEASLFEEALEKYGKDFNDIRQDFLPWKSLTSIIEYYYMWKTTD [M4Q] it was -0.885 ± 0.35; in that of RDEIEEWSASEASLFEEALEKYGKDFNDIRQDFLPWKSLTSIIEYYYMWKTTD [M4I], -0.211 ± 0.3. The figure for RDEGEEWSASEASLFEEALEKYGKDFNDIRQDFLPWKSLTSIIEYYYMWKTTD [M4G] is -0.947 ± 0.2; for RDEKEEWSASEASLFEEALEKYGKDFNDIRQDFLPWKSLTSIIEYYYMWKTTD [M4K] it is -0.647 ± 0.31; for RDEVEEWSASEASLFEEALEKYGKDFNDIRQDFLPWKSLTSIIEYYYMWKTTD [M4V] it is -0.422 ± 0.19. The figure for RDEREEWSASEASLFEEALEKYGKDFNDIRQDFLPWKSLTSIIEYYYMWKTTD [M4R] is -0.039 ± 0.15; for RDEHEEWSASEASLFEEALEKYGKDFNDIRQDFLPWKSLTSIIEYYYMWKTTD [M4H] it is 0.156 ± 0.27. As for RDETEEWSASEASLFEEALEKYGKDFNDIRQDFLPWKSLTSIIEYYYMWKTTD [M4T], the abundance fitness is -0.481 ± 0.18. In the case of RDEWEEWSASEASLFEEALEKYGKDFNDIRQDFLPWKSLTSIIEYYYMWKTTD [M4W], the abundance fitness is -0.666 ± 0.37. Turning to RDESEEWSASEASLFEEALEKYGKDFNDIRQDFLPWKSLTSIIEYYYMWKTTD [M4S], the abundance fitness was -0.273 ± 0.19.
